Assay results taken from PMC2872554 (Nature structural & molecular biology, 2010).
One block for each molecule: values may come before it.

How the values were obtained:
[1] = molecular target: mouse E-cadherin EC1-2 W2A (mouse); test: AUC
[2] = molecular target: mouse cadherin-6 EC1-2 W4A (mouse); test: AUC
[3] = molecular target: C-terminally biotinylated mouse cadherin-6 EC1-2 M188D (mouse); test: SPR
[4] = molecular target: mouse cadherin-6 EC1-2 M188D (mouse); test: AUC
[5] = molecular target: mouse E-cadherin EC1-2 E89A (mouse); test: AUC
[6] = molecular target: mouse E-cadherin EC1-2 K14S (mouse); test: AUC
[7] = molecular target: mouse E-cadherin EC1-2 AA extension mutant (mouse); test: AUC
[8] = molecular target: mouse E-cadherin EC1-2 Y142R (mouse); test: AUC
[9] = molecular target: mouse E-cadherin EC1-2 K14E (mouse); test: AUC
[10] = molecular target: mouse E-cadherin EC1-2 fragment, wild type (mouse); test: AUC
[11] = molecular target: mouse cadherin-6 EC1-2 fragment, wild type (mouse); test: AUC
crystal structure = molecular target: the molecule itself; test: crystal structure

Kd [1]: 916 µM
Molecule: mouse E-cadherin EC1-2 W2A (domain or fragment)

binding response [3]: < 10 RU
Kd [4]: 12.6 µM
Molecule: mouse cadherin-6 EC1-2 M188D (domain or fragment)

Kd [9]: 117 µM
Molecule: mouse E-cadherin EC1-2 K14E (domain or fragment)

Kd [11]: 3.1 µM
Molecule: mouse cadherin-6 EC1-2 fragment, wild type (domain or fragment)

The remaining lines, values behind:

Molecule: mouse cadherin-6 EC1-2 W4A (domain or fragment)
Kd [2]: 321 µM

Molecule: mouse E-cadherin EC1-2 E89A (domain or fragment)
Kd [5]: 293 µM

Molecule: mouse E-cadherin EC1-2 K14S (domain or fragment)
Kd [6]: 96 µM

Molecule: mouse E-cadherin EC1-2 AA extension mutant (domain or fragment)
Kd [7]: 811 µM

Molecule: mouse E-cadherin EC1-2 Y142R (domain or fragment)
Kd [8]: 77.4 µM

Molecule: mouse E-cadherin EC1-2 fragment, wild type (domain or fragment)
Kd [10]: 98.6 µM

B1: mouse N-cadherin EC1-2 fragment, wild type (domain or fragment)
chain: DWVIPPINLPENSRGPFPQELVRIRSDRDKNLSLRYSVTGPGADQPPTGIFIINPISGQLSVTKPLDRELIARFHLRAHAVDINGNQVENPIDIVINVIDMNDNRPEFLHQVWNGSVPEGSKPGTYVMTVTAIDADDPNALNGMLRYRILSQAPSTPSPNMFTINNETGDIITVAAGLDREKVQQYTLIIQATDMEGNPTYGLSNTATAVITVTD
binding result (crystal structure): binds
